Results from the supplement of paper PMC12455559.
± gives the standard deviation of the averaged measurements.

Assays:
[1] = PET hydrolysis, aromatic products released after 48 h (umol product/mg enzyme); higher = more PET depolymerization activity
Method in brief: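 Reactions ran in sealed plates without shaking for 48 h at 40 or 60 °C. Each held 3.5 mg amorphous PET film or crystalline PET powder, 450 μL buffer and 5 μg (50 μL) of tagless, SUMO-cleaved, nickel-purified candidate enzyme. Buffers were 50 mM NaCitrate at pH 4.5 or 5.5, 50 mM NaPhosphate at pH 6.5 or 7.5, and glycine at pH 8.5. The supernatant's aromatic product, read at 260 and 280 nm against buffer blanks, gives PET hydrolysis activity per mg enzyme.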

[2] = purified protein yield per well (BCA); higher = higher soluble expression
Method in brief: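 Expression was done in E. coli C41(DE3), using 2 mL autoinduction cultures with 100 µg/mL kanamycin incubated at 37 °C for 2 h and at 18 °C for 40 h. Protein was purified on Ni-charged magnetic beads and released by SUMO protease cleavage. Yield of purified protein per well was measured with the Pierce Rapid Gold BCA kit; values below 25 ug (0.1 mg/mL) are below detection.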

[3] = melting temperature (DSF); higher = more thermostable
Method in brief: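 Candidate enzymes were expressed in E. coli C41(DE3), purified on nickel beads and released by SUMO protease cleavage. For differential scanning fluorimetry, 45 μL enzyme (0 to 0.3 mg/mL) was mixed with 5 μL 5X Sypro Orange in sealed PCR plates on a Bio-Rad CFX96 instrument. Fluorescence was read from 25 °C in steps of 0.3 °C per cycle (ramp 0.3 °C/s) for 250 cycles. The read-out is melting temperature.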

[4] = substrate: aFilm, 40 °C, pH 4.5
[5] = substrate: aFilm, 40 °C, pH 5.5
[6] = substrate: aFilm, 40 °C, pH 6.5
[7] = substrate: aFilm, 40 °C, pH 7.5
[8] = substrate: aFilm, 60 °C, pH 4.5
[9] = substrate: aFilm, 60 °C, pH 5.5
[10] = substrate: aFilm, 60 °C, pH 6.5
[11] = substrate: aFilm, 60 °C, pH 7.5
[12] = substrate: cryPow, 40 °C, pH 4.5
[13] = substrate: cryPow, 40 °C, pH 5.5
[14] = substrate: cryPow, 40 °C, pH 6.5
[15] = substrate: cryPow, 40 °C, pH 7.5
[16] = substrate: cryPow, 60 °C, pH 4.5
[17] = substrate: cryPow, 60 °C, pH 5.5
[18] = substrate: cryPow, 60 °C, pH 6.5
[19] = substrate: cryPow, 60 °C, pH 7.5
[20] = substrate: aFilm, 40 °C, pH 8.5
[21] = substrate: aFilm, 60 °C, pH 8.5
[22] = substrate: cryPow, 40 °C, pH 8.5
[23] = substrate: cryPow, 60 °C, pH 8.5

Row | Sequence | PET hydrolysis [1, 4] | PET hydrolysis [1, 5] | PET hydrolysis [1, 6] | PET hydrolysis [1, 7] | PET hydrolysis [1, 8] | PET hydrolysis [1, 9] | PET hydrolysis [1, 10] | PET hydrolysis [1, 11] | PET hydrolysis [1, 12] | PET hydrolysis [1, 13] | PET hydrolysis [1, 14] | PET hydrolysis [1, 15] | PET hydrolysis [1, 16] | PET hydrolysis [1, 17] | PET hydrolysis [1, 18] | PET hydrolysis [1, 19] | purified protein yield per well [2] | melting temperature [3] | PET hydrolysis [1, 20] | PET hydrolysis [1, 21] | PET hydrolysis [1, 22] | PET hydrolysis [1, 23]
1 | ADNPYQRGPDPTRTSVTAVNGPFANTSVSVPTGHGFNGGRIYYPTDTSQGTFGAIAISPGYTALFSAELAWMGPWLASHGFVVIGIETNSRNDFDTARGTQLLAALDYLTQQSPVRDRVDPSRLAVSGHSMGGGGALSAAMRRASLKAVVGITPYSPSSNLANDRVPTMIISGQADTVVTPSYALGLYNSIPATTESVYLEVAGGDHGFMVGRSNPVLVRTMLPFLKMFIDNDTRYSQFLCPLLDNSGVVTYRSTCPLLPTDPTTPPTGTPTPTPTTPAPTTPPPTTPPGSASEIRGTQSNRCIDVPNASRNNGTRVQLYDCNRQTNQAWTYTANKQLQVYGNMC [ESM106] | < 3 | 1.5 ± 2.1 | 3.5 ± 0.71 | < 3 | < 3 | < 3 | < 3 | < 3 | 9 ± 4.2 | 24 ± 5.7 | 28 ± 2.8 | 19 ± 1.4 | < 3 | 2 ± 2.8 | 4.5 ± 0.71 | < 3 | 392 µg | 62.2 C |  |  |  | 
2 | QSSSAAANPYERGPAPTVSSVAAQRGTFATAEVTVPPGNGFNGGKIYYPTDTSLGTWGAVAAVPGYTARWSAEGAWMGPWLASFGFVVIGIDTNSPNDYDTARGTQLLAALDYLTRKSPVHDRVDPNRLGVIGHSMGGGGAISAAERRPSLKAAVPLAPFSPSQNLSSLRVPTMIMGARDDGTVTPSYLDGLYSGMPAATQSAYIELTSGGHGFPTWGNSHVTRRAIPWLKIFLDNDTRYTQFLCPSPADSREVSRSQTKCPYVPPGGTTTPPSGEQIVGAASGRCLDVVNSSQTSGAQAHPWDCADRPGQKWARTDAGELRVYSNKCLDAEASGTSAGTRVVIWACHGRQNQRWNVNANGTITSVPSGLCLDTYNGGTGNGAQSVLGNCNGASTQRWTLR [TEP086] | < 3 | < 3 | < 3 | < 3 | < 3 | < 3 | < 3 | < 3 | < 3 | < 3 | < 3 | < 3 | < 3 | < 3 | < 3 | < 3 | 385 µg | 56.8 C |  |  |  | 
3 | ADNPYQRGPAPTNTSIEATRGTYAVSTKTISALSARGFGGGTIYYPTSTADGTFGVVAISPGYTASQSTIAWLGPRLASFGFVVVTIDTTTRYDQPTSRGSQLLAALDQAIGDSTVGPRIDATRQAVVGHSMGGGGTLEAAKTRRSLEAAVPLTGWNLDKTWPEVEAATLVIGAQNDTVAPTTSHSIPFYNSLSGAERKAYLELRGASHFAPVTSNTTIAKHTLSWLKRYVDDDTRYEQFISPGPSTAIGSPVSDYRVN [DP022] |  | < 3 | < 3 | < 3 |  | < 3 | < 3 | < 3 |  | < 3 | < 3 | < 3 |  | < 3 | < 3 | < 3 | 215 µg | 35.8 C | < 3 | < 3 | < 3 | < 3
4 | ADQRGPDPTVQSIEAARGPFATSTSRVSSLVSGFGGGTIYYPTDTSQGRFGGVVIAPGYTAGESSIAWLGPRLASQGFVVFTIDTLTRVDQPASRGRQLLAAADYLTQRSDVADRVDPARLAVMGHSMGGGGTLEAAKSRPGLKAIIPLTPWNLDKTWPEITTPTLIFGAQNDSVASVVTHARPFYQSLPATTPRSYLELRGASHFAPNLSNTTIAKYSIAWLKRFVDDDQRYTQFLCPAPADTALSDVRTSCPF [TEP091] |  |  |  |  |  |  |  |  | < 3 | 5 | 10 | 17 |  |  |  |  | 36.2 µg | 55.6 C |  |  |  | 
5 | ATPDHAATADHASAHHHAAYPVSQQTIPATDGTGFGAATLYAPQGTGRKTLGAIVVAPGLKGDQSDLAWLAQDLAGEGFIVLNMDTLGKYDLPNQRSYEMLAAAKYLATASSVKDQVDPADIGVVGYSLGGGGALQAAVEQHGLKAAVALMPYDFPAGTTDPYKPTESPTYPGITTPTLVITGQADTTAPAASMGKPAYDSIPASTPKQYLELRGADHLAARATTNGTVRDAVTNFLKVYLDGNSAYRKYVCPAPPTSAAISESASSCPR [ESM174] |  |  |  |  |  |  |  |  | < 3 | < 3 | < 3 | < 3 | < 3 | < 3 | < 3 | < 3 | 86.9 µg | 44.5 C |  |  |  | 
6 | AIEHRRGPAPSEQSVLAANGPFSHSTFAVSDAASAKFGKGTIYYPNDTSQGTFGGVAISPGYTSTEPHIAWLGTRLAAHGFVTITITTNSLYDNPTERGQQLLAALDYLANNAPLAIRQRLDTSRMGVVGHSMGGGGSLYAVWNRPALKAAVPLAPYHTIKNWSGIKTPTMIIGGSADGVAPVEEHSERFYSSMTYARERAYAELEGANHSGSFLFEDHPIIGKFTVAWLKRFIDGDTRYDQFLCPPPTGAYLTEYRASCPHA [DP006] |  |  |  |  |  |  |  |  |  | < 3 | < 3 | < 3 |  |  |  |  | 28 µg | 46.9 C |  |  | 5 | 
7 | ADNPFQRGPNPTVASVAATRGTFATAQTSVPAGNGFGGGVVYYPTDTSQGTFGGVAIVPGYSALFADEEAWMGPWLASFGFVVIGIETNSRTDSADARGTELLAALDYLTQRSPVRDRVDPNRLSVVGHSAGGAGVLSALLRRPSLKAGVGLAPGSPVGNYDLYSDRVPTMFISGQRDTTVTQSYLNGLYSTLPATTPSAWVEITGVDHLFATRANTTEMRVLIPWLKIWVDNDTRYTQFLCPLADSTGISMYRDKCPYVPPGGSSPSPSASPSSTPSRSPSPSPSPSPSPSPSPSPSPSPSPSPSASPSLPPPGACVAEYRTMNSWPGGYQAMVTVTAGGTAVNGWTVRWTLGGGQTISQLWNGTLSTSGSAVTVKNASYNGSIPASGSATFGFLATGTPSTPSLTCTSP [ESM036] | < 3 | < 3 | < 3 | < 3 | < 3 | < 3 | < 3 | < 3 | < 3 | < 3 | < 3 | < 3 | < 3 | < 3 | < 3 | < 3 | 376 µg | 49.6 C |  |  |  | 
8 | MRPGRVCPDSCGCRPSSRRKDATIVQQLRNETIGSPSPHRAPRRFRPRLVRAGLAALLAAGGLFTAQSGSAGAAQNPYERGPAPTVSSIEAPRGPYAVSETRVSSLGVTGFGGGTLYYPTTTRDGTFGAVAISPGYGGTQSSISWLGPRLASQGFVVFTIDTLSTLDQPAGRGGQLLAALDYLTQRSSVRDRVDSGRLGVMGHSMGGGGSLEAAKSRPALQAAIPLTGWNLDKTWQELRTPTLVVGADGDTIAPVSSHSEPFYESLAGSLDKAYLELNGASHFTPNSSNTTIAKYSVSWLKRFIDNDLRYEQFLCPLPRPGATIEEYRGNCPHTS [TEP099] |  |  |  |  |  |  |  |  | < 3 | < 3 | < 3 | < 3 | < 3 | < 3 | < 3 | < 3 | 68.5 µg | 50.2 C |  |  |  | 
9 | ADNPYQRGPDPTRTSVTAVNGPFANTSVSVPTGYGFNGGRIYYPTDTSQGTFGAIAISPGYTALFSAELAWMGPWLASHGFVVIGIETNSRNDFDTARGTQLLAALDYLTQQSPVRDRVDPNRLAVAGHSMGGGGALSAAIRRPSLKAVVGIAPYSPSSNLANDRVPTMIFSGQADTVVTPSYATGLYNSLPATTESVYLEVAGADHGFMVGRSNPVMVRTMLPFVKMFIDDDARYSQFLCPLLDNSGVVTYRSTCPLLPTTPTTPPTGTPTPTPTPTQTTPPPGSASQIVGTQSGRCVDVPNASTTNGTRVQLYDCNRQTNQAWTYTSTKQLQVYGTMCLDAAGTGNGAAVQIYSCHSQTNQQWNVNSNGTISSVQSGRCLDAWSTANGAQIQLYDCHGQTNQQFRLAALA [ESM095] |  |  |  |  |  |  |  |  | 11 | 21 | 22 | 10 | < 3 | < 3 | < 3 | < 3 | 147 µg | 63.7 C |  |  |  | 
10 | ADNPYQRGPNPTQASIAANRGTFATAETSVGGGNGFGGAKIYYPTDTSQGTFGAIAVSPGYTATWAAEGAWMGHWLASFGFVVIGIDTINRNDREYARGTQLLAALDYLTQRSSVRTRVDPNRLAVMGHSMGGGGTISAALRRPTLKAAIGLAPYYPSQSTSGMQVPTMLLAGQNDGTSTPASIVTFYNDIPASTEKVYLELTGAGHGFPTSNNSVVTRKVIPWMKIFIDQDTRYTQFLCPLQDLTGIRTYRNSCPLLPNDPGTTFSLAGSASGKCADVPGRVQTNGTGLIIWTCNNAGNQQWTQTPAGELRIYGNTKCMDANASGQGARVTINTCNGGNSQKWTVNTNGTVTNAASGRCLDAGGTADNSPVVVNTCNAASGQTWTKRP [DP047] |  | < 3 | < 3 | < 3 |  | < 3 | < 3 | < 3 |  | < 3 | < 3 | < 3 |  | < 3 | < 3 | < 3 | 311 µg | 49.9 C | < 3 | < 3 | < 3 | < 3
11 | ADNPYQRGPNPTAASIAATTGPFAIASVSVARGNGFGGGVIYYPTDTSQGTFGAIAISPGLNGTWPGIAWLGPRLASQGFVVFGIETNNLNDSPTSRGTQLLAALDYLTQRSSVRTRVDATRLAVAGHSMGGGGALDAALRRPSLQAAIGNAPYLPSGNLSTDRVPTLIYAMQNDTLVPPSRLTTMYNTIPATTERGYIQITGAGHNYIGQPSTNLARTMIPWFKIFIDNDTRFSQFLCPLSNMSGISQYRNSCPLI [ESM159] | < 3 | < 3 | < 3 | 2 ± 2.8 | < 3 | < 3 | < 3 | < 3 | < 3 | 15.5 ± 6.4 | 46.5 ± 3.5 | 74.5 ± 7.8 | < 3 | < 3 | 6.5 ± 2.1 | 13 ± 1.4 | 371 µg | 57.4 C |  |  |  | 
